According to article PMC5689005:

B1: HP1 (A-rich stem-loop) (structured_RNA)
RNA: GGCGACGGUGUAAAAAUCUCGCC
B2: HP2 (structured_RNA)
RNA: GGGCUUUAAAGUGAAAGCCC

Legend:
[1] = biological target: hLysRS (full-length human lysyl-tRNA synthetase) (human, UniProt Q15046 1-597); test: fluorescence anisotropy
[2] = biological target: hLysRSΔN65 (human lysyl-tRNA synthetase, N-terminally truncated) (human, UniProt Q15046 66-597, del1-65); test: fluorescence anisotropy
hLysRSΔN65 (human lysyl-tRNA synthetase, N-terminally truncated), sequence (Q15046 66-597, stated change not applied): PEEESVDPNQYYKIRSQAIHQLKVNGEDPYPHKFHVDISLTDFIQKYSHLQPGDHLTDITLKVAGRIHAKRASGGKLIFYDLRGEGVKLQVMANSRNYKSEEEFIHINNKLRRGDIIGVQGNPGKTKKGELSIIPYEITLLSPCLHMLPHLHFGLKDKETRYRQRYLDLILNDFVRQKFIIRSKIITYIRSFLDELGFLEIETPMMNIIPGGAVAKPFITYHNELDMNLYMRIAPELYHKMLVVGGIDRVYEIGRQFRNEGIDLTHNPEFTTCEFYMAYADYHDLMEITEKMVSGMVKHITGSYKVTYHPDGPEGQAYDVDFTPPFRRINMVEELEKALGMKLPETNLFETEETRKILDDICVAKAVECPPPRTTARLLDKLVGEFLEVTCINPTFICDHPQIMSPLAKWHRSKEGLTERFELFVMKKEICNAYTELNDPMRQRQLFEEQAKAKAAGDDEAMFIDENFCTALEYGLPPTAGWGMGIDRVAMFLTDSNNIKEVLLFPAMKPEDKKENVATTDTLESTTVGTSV

hLysRS (full-length human lysyl-tRNA synthetase), sequence (Q15046 whole entry, the tested form may be a part): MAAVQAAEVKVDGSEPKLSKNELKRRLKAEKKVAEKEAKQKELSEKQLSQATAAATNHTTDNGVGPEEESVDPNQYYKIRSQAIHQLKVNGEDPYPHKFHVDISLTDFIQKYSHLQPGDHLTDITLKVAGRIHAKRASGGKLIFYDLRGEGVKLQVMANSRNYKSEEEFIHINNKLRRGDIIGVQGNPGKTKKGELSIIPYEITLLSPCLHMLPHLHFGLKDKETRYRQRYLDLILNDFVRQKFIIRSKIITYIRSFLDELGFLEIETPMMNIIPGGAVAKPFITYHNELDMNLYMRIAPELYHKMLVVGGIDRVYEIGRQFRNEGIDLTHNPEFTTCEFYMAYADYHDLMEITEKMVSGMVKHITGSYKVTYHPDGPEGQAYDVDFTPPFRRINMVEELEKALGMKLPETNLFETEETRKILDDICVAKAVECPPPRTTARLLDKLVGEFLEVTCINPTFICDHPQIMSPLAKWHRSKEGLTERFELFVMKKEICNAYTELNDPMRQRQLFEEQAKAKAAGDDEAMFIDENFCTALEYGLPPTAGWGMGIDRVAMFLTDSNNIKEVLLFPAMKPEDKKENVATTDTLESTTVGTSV

| Binder | binding result [1] | binding result [2] |
| --- | --- | --- |
| B1 | no binding | no binding |
| B2 |  | no binding |
